Measurements as given in patent publication US20100166708.

Assays:
[1] = tryptophan fluorescence, urea dissociation of peptide complexes, 5 µM peptide
[2] = tryptophan fluorescence, urea dissociation of peptide complexes, 25 µM peptide

Substance: delta-haemolysin
- midpoint of the unfolding curve [1]: The midpoints of the unfolding curves of 5 µM and 25 µM were 2.14 and 3.20M urea
- midpoint of the unfolding curve [2]: The midpoints of the unfolding curves of 5 µM and 25 µM were 2.14 and 3.20M urea
